{"source": "the nanobody polyreactivity screen of Harvey et al. (2022)", "data": [{"assay": "yeast display, Sf9 membrane polyspecificity reagent, FACS + sequencing; frameworks hold sequencing errors", "in_short": "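Using colony PCR, genes from sorted yeast display clones were amplified, then sequenced on MiSeq at 2 × 250 and filtered by CDR length. The clones had been stained with 10% biotinylated, detergent-solubilized Sf9 membrane reagent for 1 hour at 4 °C and sorted by FACS into low and high (top ~1%) gates on anti-HA and streptavidin fluorescence. Polyreactivity labels come from the gate of origin.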", "values": [{"sequence": "QVQLVESGGGLVQAGGSLRLSCAASGFTFGVYAMGWYRQAPGKERDLVAAISTTVGSTYYADSVKGRFTISRDNAKNTVYLQMNSLKPEDTAVDYCAAEYTGYINYYIYEYWGQGTQVTVSS", "polyreactivity (PSR sort gate)": "low polyreactivity"}, {"sequence": "QVQLVESGGGLVQAGGSLRLSCAASGFTFGVYAMGWYRQAPGKERELDAAISTTVGSTYYADSVKGRFTISRDNAKNTVYLQMNSLKPEDTAVYYCAAEYTGYINYYIYEYWGQGTQVTVSS", "polyreactivity (PSR sort gate)": "low polyreactivity"}, {"sequence": "QVQLVESGGGLVQAGGSLRLSCAASGFTFGYNAMGWYRQAPGKERELVAAISRSGGRTYYADSVKGRFTISRDNAKNTVYLQMNSLKPEDTAVYYCARRYRDYGRYGYWGQGTQVTVSS", "polyreactivity (PSR sort gate)": "high polyreactivity"}, {"sequence": "QVQLVESGGGLVQAGGSLRLSCAASGFTFGYNAMGWYRQAPGKERELVAAITSGGSTNYADSVKGRFTISRDNAKNTVYLQMNSLKPEDTAVYYCATGVRPWRKKPVEFYHRGQGTQVTVSS", "polyreactivity (PSR sort gate)": "low polyreactivity"}, {"sequence": "QVQLVESGGGLVQAGGSLRLSCAASGFTFGYNAMGWYRQAPGKERELVAVINKSGGSTYYADSVKGRFTISRDNAKNTVYLQMNSLKPEDTAVYYCAATYNGWKRYYYWGQGTQVTVSS", "polyreactivity (PSR sort gate)": "high polyreactivity"}, {"sequence": "QVQLVESGGGLVQAGGSLRLSCAASGFTFGYYAMGWSRQAPGKERELVAAISWSGSRTYYADSVKGRFTISRDNAKNTVYLQMNSLKPEDTAVYYCAAQRYRYLYTSTGWQRYDYYYWGQGTQVTVSS", "polyreactivity (PSR sort gate)": "high polyreactivity"}, {"sequence": "QVQLVESGGGLVQAGGSLRLSCAASGFTFGYYAMGWYRQAPGKERELVAAINWSGVNTNYADSVKGRFTISRDNEKNTVYLQMNSLKPEDTAVYYCAADAGYDGYGYWGQGTQVTVSS", "polyreactivity (PSR sort gate)": "low polyreactivity"}, {"sequence": "QVQLVESGGGLVQAGGSLRLSCAASGFTFGYYAMGWYRQAPGKERELVAAISSSGGSTYYADSVKGRFTISRDNAKNTVYLQMNSLKQEDTAVYYCSTGFLQNYYKYSSSFRFYYWGQGTQVTVSS", "polyreactivity (PSR sort gate)": "high polyreactivity"}, {"sequence": "QVQLVESGGGLVQAGGSLRLSCAASGFTFGYYAMGWYRQAPGKERELVASISSGGSTNYADSVKGRFTISRDNAKNTVYLQMNSLKPEDTAVYYCNKRAYYGRYDYWGQGTQVTVSS", "polyreactivity (PSR sort gate)": "high polyreactivity"}, {"sequence": "QVQLVESGGGLVQAGGSLRLSCAASGFTFGYYAMGWYRQAPRKERELVAAISSSSGRTHYADSVKGRFTISRDNAKNTVYLQMNSLKPEDTAVYYCAAEFYYLYYYWGQGTQVTVSS", "polyreactivity (PSR sort gate)": "high polyreactivity"}, {"sequence": "QVQLVESGGGLVQAGGSLRLSCAASGFTFHGYTMGWYRQAPGKERELVAAITSGGGTNYADSVKGRFTISRVNAKNTVYLQKNSLKPEDTAVYYCAAVGTVPRKQRYHSYIDYDYWGQGTQVTVSS", "polyreactivity (PSR sort gate)": "low polyreactivity"}, {"sequence": "QVQLVESGGGLVQAGGSLRLSCAASGFTFHNNVMGWYRQATGKERELVATISKSGGSTYYADSVKGRFTISRDNAKNTVYLQMNSLKPEDTAVYYCARRYRDYDYWGQGTQVTVSS", "polyreactivity (PSR sort gate)": "high polyreactivity"}, {"sequence": "QVQLVESGGGLVQAGGSLRLSCAASGFTFHRYAMGWYRQAPGKERELVAAISSRGGSTYYADSVKGRFTISRDNAKNTVYLQMNSLKPEDTAVYYCAARWPHRYYSSYYGYDYWGQGTQVTVSS", "polyreactivity (PSR sort gate)": "high polyreactivity"}, {"sequence": "QVQLVESGGGLVQAGGSLRLSCAASGFTFHTYAMGWYRQAPGKERELVAAIDSSGGITYYADSVKGRFTISRDTAKNTVYLQMNSLKPEDTAVYYCAAVFLLFGFEWSYDYWGQGTQVTVSS", "polyreactivity (PSR sort gate)": "low polyreactivity"}, {"sequence": "QVQLVESGGGLVQAGGSLRLSCAASGFTFHYNAMGWYRQAPGKERELVAAITSGGSTYYADSVKGRFTISRDNAKNTVYLQMNSLKPEDTAVYYCNKLYYRYHHNYDYWGQGTQVTVSS", "polyreactivity (PSR sort gate)": "high polyreactivity"}, {"sequence": "QVQLVESGGGLVQAGGSLRLSCAASGFTFIDYAMGWSRQAPGKERELVAAITRDGGSTYYADSVKGRFTISRDNANNTVYLQMNRLKPEDTAVYYCATVRRVQHWVWYWLWRYDYWGQGTQVTVSS", "polyreactivity (PSR sort gate)": "high polyreactivity"}, {"sequence": "QVQLVESGGGLVQAGGSLRLSCAASGFTFIFNAMGWYREAPGKERELVAAITWGGASTDYADSVKGRFTISRDNAKNTVNLQMKSLKPEDTAVYYCAKDNWDNPRPTSEMDYWGQGTQVTVSS", "polyreactivity (PSR sort gate)": "low polyreactivity"}, {"sequence": "QVQLVESGGGLVQAGGSLRLSCAASGFTFIGYAMGWNRQAPGKERELVADITYSGSSTYYADSVKGRFTISRDNAKNTVYFQMNSLKPEDTAVYYCAAEAYYYWFDVVYWGQGSQVTVSS", "polyreactivity (PSR sort gate)": "low polyreactivity"}, {"sequence": "QVQLVESGGGLVQAGGSLRLSCAASGFTFIGYAMGWSRPAPGKERELVAAITWRGGRTYYADSVKGRFSISRDNAKNTVYLQMNSLKTEETAVYYCAADGYTVGNSYYWGHGTQVTVSS", "polyreactivity (PSR sort gate)": "high polyreactivity"}, {"sequence": "QVQLVESGGGLVQAGGSLRLSCAASGFTFIGYAMGWYRQAPGKERELVAAITQSGGSTFYADSVKGRFTISRDNAKNTVYLQMNSLKPEDTAVYYCNAYRKFRYWGQGTQVTVSS", "polyreactivity (PSR sort gate)": "low polyreactivity"}, {"sequence": "QVQLVESGGGLVQAGGSLRLSCAASGFTFIHYGMGWYRQAPGKERELVAAISSRGGRTYYADSVKGRFTISRDNAKNTVYLQMNSLKPEDTAVYYCNRDYAVISYGEYDSWGQGTQVTVSS", "polyreactivity (PSR sort gate)": "high polyreactivity"}, {"sequence": "QVQLVESGGGLVQAGGSLRLSCAASGFTFIKNAMGWYRPAPGKERELVAAINSGGRTYYADSVKGRFTISRDNAKNTVYFQMNSLIPEDTAVYYCAARYTRDYYWGQGTQVTVSS", "polyreactivity (PSR sort gate)": "high polyreactivity"}, {"sequence": "QVQLVESGGGLVQAGGSLRLSCAASGFTFIKYAMGWYRQAPGKEREFVATISWNGGNTYYADSVKGRFTISRDNAKNTVYLQMNSLKPEDTAVYYCAARVKYRTRGGTVVSYDYWGQGTQVTVSS", "polyreactivity (PSR sort gate)": "high polyreactivity"}, {"sequence": "QVQLVESGGGLVQAGGSLRLSCAASGFTFIKYAMGWYRQAPGKEREFVSTISWNGGNTYYADSVKGRFTISRDNAKNTVYLQINSLKPEDTAVYYGAARVKYRTRGGTVVSYDYWGQGTQVTVSS", "polyreactivity (PSR sort gate)": "high polyreactivity"}, {"sequence": "QVQLVESGGGLVQAGGSLRLSCAASGFTFINYAMGWYRQAPGKERELVAAISSSSDRTYDADSVKGRFTISRDNAKNTVYLQMNSLKPEDTAVYYCAAYAQKRYYWGQGTQVNVSS", "polyreactivity (PSR sort gate)": "high polyreactivity"}, {"sequence": "QVQLVESGGGLVQAGGSLRLSCAASGFTFIRYAMGWYRQAPGKERELVAAIRGTGTSTYYADSVKGRFTISRDNAKNTVYLQMNSLKPEDTAVYYCNKVAGRSPYTRYDYWGQGTQVTVSS", "polyreactivity (PSR sort gate)": "low polyreactivity"}, {"sequence": "QVQLVESGGGLVQAGGSLRLSCAASGFTFISNAMGWYRQAPGKERELVAAISSSGGRTYYADSVKGRFTSSRDNAKNTVYLQMNSLKPEDTAVYYCNADRSLLYSRKIEYDYWGQGTQVSVSS", "polyreactivity (PSR sort gate)": "low polyreactivity"}, {"sequence": "QVQLVESGGGLVQAGGSLRLSCAASGFTFITNAMGWYRQAPGKERELVAAISSSGGRTYYADSVKGRFTISRDNAKNTVYLQMNSLKPEDTAVYYCNADRSLLYSRKIEYDYWGQGTQVTVSS", "polyreactivity (PSR sort gate)": "low polyreactivity"}, {"sequence": "QVQLVESGGGLVQAGGSLRLSCAASGFTFIYAMGWYRQAPGTERELVAAITRSGGSTYYADSVKGRFTISRDNAKNTVYLQMNSLKPEDTAVYYCAAEAVIYYSSYFEYYYWGQGTQVTVSS", "polyreactivity (PSR sort gate)": "high polyreactivity"}, {"sequence": "QVQLVESGGGLVQAGGSLRLSCAASGFTFIYYAMGWYRQAPGKERELVAAIRWSGGSTYYADSVKGRFTISRDNAKNTVYLQMNSLKPEDTAVYYCAARAIYKSKYDYWGQGTQVTVSS", "polyreactivity (PSR sort gate)": "high polyreactivity"}, {"sequence": "QVQLVESGGGLVQAGGSLRLSCAASGFTFKAYAMGWYRQAPGKERELVAAITYSGGSTYYADSVKGRFTISRDNAKNTVYLQMNSLKPEDTAVYYCNADSDLDLYWKMDYWGQGTQVTVSS", "polyreactivity (PSR sort gate)": "low polyreactivity"}, {"sequence": "QVQLVESGGGLVQAGGSLRLSCAASGFTFKFYAMGWYRQAPGKEMEFVAAISGSGGSTYYADSVKRRFTISRDNAKNTVYLQMNSLKPEDTAVYYCAAEVPGKPYRRSRYSFRHDYWGQGTQVTVSS", "polyreactivity (PSR sort gate)": "low polyreactivity"}, {"sequence": "QVQLVESGGGLVQAGGSLRLSCAASGFTFKGNTMGWYRQAPGKERELVATITRGGTTYYADSVKGRFTISRDNAKNTVYLQMNSLKPEDTSVYYCAAVVYRPYRWQYDYWGQGTQVTVSS", "polyreactivity (PSR sort gate)": "high polyreactivity"}, {"sequence": "QVQLVESGGGLVQAGGSLRLSCAASGFTFKHYAMGWYRQAPGKEREFVAAITGSGGSTYYADSVKGRFTISRDNAKITVYLEMNSLKPEDTAVYYCAASDVSRYRPYRRFDYWGQGTQVTVSS", "polyreactivity (PSR sort gate)": "high polyreactivity"}, {"sequence": "QVQLVESGGGLVQAGGSLRLSCAASGFTFKKNAMGWYRQAPGKERELVDAISISGGSTYYADSVKGRFTISRDNAKNTVYLQMNSLKPEDTAVYYCAAVYISRNFFGRARGDYWGQGTQVTVSS", "polyreactivity (PSR sort gate)": "low polyreactivity"}, {"sequence": "QVQLVESGGGLVQAGGSLRLSCAASGFTFKRNAMGWYRQAPGKERELVAAISWSGSRTYADSVKGRFTISRDNAKNTVYLQMNSLKPEDTAVYYCAASPGRRRRPYASLIRYDYWGQGTQVTVSS", "polyreactivity (PSR sort gate)": "high polyreactivity"}, {"sequence": "QVQLVESGGGLVQAGGSLRLSCAASGFTFKRYAMGWYRQAPGKERELVAAISWSGGSTYYADSVKGRFTISRDNAKNTVYLQMNSLKPEDTAVYYCAADGGSTEEYYYWGQGTQVTVST", "polyreactivity (PSR sort gate)": "high polyreactivity"}, {"sequence": "QVQLVESGGGLVQAGGSLRLSCAASGFTFKTYVMGWYRQAPGKERELVAAISRRGGSTHYADSVKGRFTISRDNAKNTVYLQMNSLKPEDTAVYYCARRWYSTWWYGYWGQGTQVTVSS", "polyreactivity (PSR sort gate)": "high polyreactivity"}, {"sequence": "QVQLVESGGGLVQAGGSLRLSCAASGFTFKWYTMGWYRQAPGKERELVAGISRRGGSTYYADSVKGRFTISRDNAKNTVYLQMNSLKPEDTAVYYCAARYTWRRAGYYYWGQGTQVTVSS", "polyreactivity (PSR sort gate)": "high polyreactivity"}, {"sequence": "QVQLVESGGGLVQAGGSLRLSCAASGFTFKYNVMGWYRQAPGKERELVSAISKRGGNTYYADSVKGRFTISRDIAKNTVYLQMNSLKPVDTAVYYCAADPTSPETSGQGYDYWGQGTQVTVSS", "polyreactivity (PSR sort gate)": "high polyreactivity"}, {"sequence": "QVQLVESGGGLVQAGGSLRLSCAASGFTFKYYAMGWYRQAPGKERELVAAISRRGTSTYYADSVKGRFTISRYNAKNTVYLQMNCLKPEDTAVYYCSACAYGTYSVYWINEYDYWGQGTQVTVSS", "polyreactivity (PSR sort gate)": "high polyreactivity"}, {"sequence": "QVQLVESGGGLVQAGGSLRLSCAASGFTFKYYAMGWYRQAPGKERELVAVISSSGGSTYYADSVKGRFTISRDNAKNTVYLQMNSLKPEDTAVYYCAAELVYRYYVKDADDYWGQGTQVTVSS", "polyreactivity (PSR sort gate)": "low polyreactivity"}, {"sequence": "QVQLVESGGGLVQAGGSLRLSCAASGFTFKYYAMGWYRQAPGQERELVAAISSTGSTYYADSVKGRFTISRDNAKNTVYLQTNSLKPEDTAVYYCNKLFEYWGGDNDYWGRGTQVTVSS", "polyreactivity (PSR sort gate)": "high polyreactivity"}]}]}
